# According to the nanobody polyreactivity screen of Harvey et al. (2022):
# Assay: yeast display, Sf9 membrane polyspecificity reagent, FACS + sequencing; frameworks hold sequencing errors
# Summary of the method: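 Galactose-induced (36–48 hours) yeast carrying a synthetic nanobody display library were exposed to 10% biotinylated, detergent-solubilized Sf9 membrane reagent at 4 °C for 1 hour. FACS followed streptavidin microbead enrichment, using low and high (top ~1%) gates for expression (anti-HA) and reagent binding (streptavidin). Colony PCR, MiSeq 2 × 250 sequencing and CDR-length filtering followed. Labels for polyreactivity reflect the gate of origin.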
row,Sequence,polyreactivity (PSR sort gate)
1,QVQLVESGGGLVQAGGSLRLSCDASGITFWNALGWYRQAPGKERELVAAITSSGGSTYYADSVKGRFTISRDNAKNTVDLQMNSLKPEDTAVYYCAADYGRTRYDMDYWGQGTQVTVSS,low polyreactivity
2,QVQLVESGGGLVQAGGSLRLSCAASGRTIWYYAKGWYRQAPGKERELVAAITRGGRTNYADSVKGRFTISRDNAKNTVDLQMNSLKPEDTAVYYCAADYRDPAHSYGYWGQGTQVTVSS,high polyreactivity
3,QVQLVESGGGLVQTGGSLRLSCAASGRIFKHYAMGWYTHAPGKERELVAAITNGGRTNYSDSVKGRFTISRDNAKNTVYLQMNSLKPEDTAVSYCARDRKIAYLSEGFDYWGQGTQVSVSS,low polyreactivity
4,QVQLVESGGGLVQAGGSLRLSCAASGSISYRYVMGWYRQAPGKERELVAAITTSGGSTYYADSVKGRFTISRDNAKNTVYLQKNSLKPEDTAVYYCAKVYQADQLRSHYDYWGQGTQVTVSS,high polyreactivity
5,QVQLVESGGGLVQAGGSLRLSCAASGSIFVANAMGWYRQAPGKETELVAAISQDGGTKYYADSVKGRFTISRDNAKNTVYLQMNSLKPEDTAVYYSAAEYPSFPEDDEYDYWGQGTQVTVSS,low polyreactivity
6,QVQLVESGGGLVQAGGSLRLSCAASGSIFGYNAMGWYRQARGKERELVAAITSSGGSTYYADSVKGRFTISRDNSKNTVYLQMKSLKPEDTAVYYCNARDWYIVWYDYWGQGTQVTVSS,low polyreactivity
7,QVQLVESGGGLVQAGGSLRLSCAASGLIFYPYAMGWYRQAPGKERELVAGISSSGDSTYYADSVKGRFTISRDNAKNTVYLQMNSLKPEDTAVYYCNADGWYFEYWGQGTQVTVSS,low polyreactivity
8,QVQLVESGGGLVQAGGSLRLSCAPSGCTLGAYAMGWYRQAPGKVRELVADISSRGASTYYEDSVKGRFTISRDHAKNTVYIQMNSLKPEDTAVYDCARAVYIWYGYGYFPEYEYWGQGTQVTVSS,low polyreactivity
9,QVQLVESGGGLVQAGGSLRLSCAASGSTFTSYAMGWYRQAPGKERELVAAINWSGGSTYYADSVKGRFTISRDIAKNTVYLQMNSLKPEDTAVYYCAVLYRYGYDYWGQGTQVTVSS,low polyreactivity
10,QVQLVESGGGLVQAGGSLRLSCAASGGIVSINAMGWYRQAPGKERELVAAIRWNSGRTYYADSVKGRFTISRDNAKNTVYIQMNSLKPEDTAVYYCAVRDYISWEDYYWGQGTQVTVSS,high polyreactivity
11,QVQLVESGGGLVQAGGSLRLSCAVSGGILYEYAMGSDREAPGKERELVAAITTSGSTYYADSVKGRFTISRDNAKNTVDLLMNSLKPEDTAVYYCAADSDYFYYDLDYWGQGTQVTVSS,low polyreactivity
12,RVQLQESGGGLVQAGGTLRLSCAASGTIFIRGDMGWYRQAPGKEREFVATIDTGSNTYYADSEKGRFTISRDNAKKAVYLQMNCLKPGDTAVYYCVVDYQLSGRLWDWGQGTQVTLSS,low polyreactivity
13,QVQLVESGGGLVQAGGSLRLSCAASGSTFTDYDMGWYRQAPGTERELVAAITSGCSTNYADSVKGRFTISRDNAKNTVYLQMNSLKPEDTAVYYCAAADADRKYDYWGQGTQVTVTS,low polyreactivity
14,QVQLVESGGGLVQAGGSLRLSCAASGSISTVYAMGWSRQAPGKERELVAAISWSGGSTYYADSVKGRFTISRDNAKNTDYLQMNSLKPEDTAFYYCAVRGLLYHSYYSVRYDYWGQGTQVTVSS,high polyreactivity
15,QVQLVESGGGLVQAGGSLRLSCAASGRIFYVYALGWYRQAPGKERELVAAIDWNGGTTYYADSVKGRFTISRDNAKNTVYLQMNSLKPEDTAVYYCAVSLQGYNQVDYYYWGQGTQVTVSS,high polyreactivity
16,QVQLVESGGGLVQAGGSLRLSCAASGRIFQFYAMGWYRQAPGKERELVASISASGARTYYADSVKGRFTISRDNAKNTVYLQMNSLNPEDTAVYYCNVVYFDGNPEDYEYWGKGTQVTVSS,high polyreactivity
17,QGQLVESGGGLVQAGGSLRLSCAAYGSTFYLYPMGRYRQAPGKERELVASISLSGRSTYYADSVKGRFTISRDNAKNTVYLQMNRLKQEDTAVYYCAARRFAYYFQYLGGGYWGQGTQVTVSS,high polyreactivity
18,QVQLVESGGGLVQAGGSLRLSCAASGSTFRYNAMGWYRQAPGKERELVAGITSSGGTYADSVKGRFTISRDNAKNTVSLQMNSLKPEDTAVYSCAAEYNWYDYWGQGTQVTVSS,low polyreactivity
19,QVQLVESGGGLVQAGGSLRLSCAASGSIFRWNAMGWYRQAPGKERELVAAIDSGGSTYADSVKGRFTISRDNAKNTVYLQMNSLKPEDTAVYYCAAEIPDEWPYDYWGQGTQVTVSS,low polyreactivity
20,QDQLVESGGGLVQAGGSLRLSCAASGSIFKYNMGWYRQAPGKERELVAAISRGGSTYYADSVKGRFTISRDNAKNTVYLQMTRLKPEDTAVYYCNAATSRRFSGMNYCGQGTQVTVSS,high polyreactivity
21,QVHLVESGGGLVQAGGSLRLSCAASGRIFTYYAMGWYRQAPGKERELFAGISRSGTSSYYADSVKGSFTISRDNAKNTVYLQMNSLKPEDTAVYYCAADVFRDDVWLDYWGQGTQVTVSS,low polyreactivity
22,QVQLLESGGGLVQAGGSIRLSCSASGRTFARYVMGWYRQAPGKERELVASISNSGGSTYYSDSVKGRFTISRDNAQNTVYLQMNSLKPEDTEVYYCARRYYYYTTYRYDYWGQGTQVTVSS,high polyreactivity

row,Sequence,polyreactivity (PSR sort gate)
1,QVQLVESGGGLVQAGGSLRLRCAASGSTFGYNAMGWYRQAPGKESELVAAISSSGGTTYYADSVKARFTISRDNAKNTVYLQMNSLKPEDTAVYYCAADHTVGRYEFEFWGQGTQVTVSS,low polyreactivity
2,QVQLVESGGGLVQAGGSLRLSCAASGSIFGRNAMGLYRQAPGKERELVAAITDGGNTNYADSVKGRFTISRDNAKNTVYLQMNSLNPEDTAVYYCAARIPGTYGGRYGYDYWGQGTQVTVSS,low polyreactivity
3,QVQLVESGGGLVQAGGSLRLSCAASGLNFYYYTMGWYREAPGKERELVATISRSGTSTNYADSVKGRFTISRDNAKNTVYLQMNSLKPEDTAVYYCAAVLRWRDLFSEYYYLGQGTQVTVSS,high polyreactivity
4,QVQLVESGGGLVQAGGSLRLSCAASGRTFGYYAMGWYRPEHGTERELVAAITRTGGSTHYADSVKGRFTISRDNAKNTVYLQMNSLKPEDTAVYYCARDYRYTIPYDYWGQGTQVTVSS,low polyreactivity
5,QVQLVESGGGLVLAGGSLRLSCAASGRTFELNALGWYRQAPGKERELVAAISWSGGSTYYADSVKGRFTISRDNAKNTVYLQMNSLKPEDTSVYYCAAQYQQGPFVKYYYWGQGPQVTVSS,high polyreactivity
6,QVQLEESGGGLVQAGGSLRLSCAASGRIFATNAMGWYRPAPATERELVAAISSSGGPTYYADSVKGRFTISRDNAKNTVYLQMNSLIREATAVYYCARVPITNDQYSHYYYWGQGTQVTVSS,high polyreactivity
7,QVQLVESGGGLVQAGGSLRLSCAASGRTFWYYAMGWYRQAPGKERELVAGITYGDGSTYYADSVKGRFTISRDNAKNTEYLQMNSLKPEDTAVYYCAVDLRSYWFRYGFDYWGQGTQVTVSS,low polyreactivity
8,QVQLEESGGGLVQAGGSLRLSCAASGRTITNYAMGWYRQAPGKERELVASINSGGSTSYADSVKGRFTISRDNAKNTVYLQMNSLKPEDTAVYYCNKRYLKFWGHQYGYWGQGTQVTVSS,high polyreactivity
9,QVQLVESGGGLVQAGGSLRLSCAASGSIDWNAMGWYRQAPGKEREFVAAISSSGGRTSYADSVKGRFTISRDNAKNTVYLQMNSLKPEDTAVYYCAAAGSYDGDRYYYWGQGTQVTVSS,high polyreactivity
10,QVQLVESGGGLVQAGGSLRLSCAASGRTLEQYAMGWYRQAPRKERELVAAINKSGARTYYADSVKGRFTISRDNAKNSVYLQMNSQKPEDTAVYYCNTVGPSYLFDYWGQGTQVTVSS,high polyreactivity
11,QVQLVESGGGLVQAGGSLRLSCAASGNTFTRNAMGWYRQAPGKERELVAAITGRGGTYYADSVKGRFTISRDNAKNTVYLQMNSLKPEDTAVYYCNAVYRSSYQKGSMDYWGQGTQVTVSS,high polyreactivity
12,QVQLVESGVGLVQAGGSLRLSCAASGLIFYKYAMGWYRQAPGKERELVAAITRGGGSTSYADSVKGRFTISRDNAKNTVYLQMNSLKPEDTAVYYCNAAPYTRALQGEFDYWGQGTQVTVSS,high polyreactivity
13,QVQLVESGGGLVQAGGSLRLSCAASGSIFGVYAMGWYRQAPGKESELVATITWRGGSTYYADSVKGRFTISRDNAKNTVYLQMNSLKPEDTSVYYCNARYKWGYYSRYDYWGQGTQVTVSS,high polyreactivity
14,PVQLVESGGGLVQAGGSLRLSCAASGSIFFGYAMGWYRQAPGKERELVAAFNGSVITSYADSVKGRFTISRDNAKNPVYVQMNSLKPEDTAYYCNTGSTWGAVIANYDHWGQGTQVTVSS,low polyreactivity
15,QVQLVESGGGLVQAGGSLRLSCAASGRIFQVNAMGWYRQAPGKERELVAAITYSGGTTYYADSVKGRFTISRDNAKNTVYLQMNSLKPEDTAVYYCNAEYRWPYWGQWYFKGYDYWGQGTQVTVSS,low polyreactivity
16,QVQLVESGGGLVQAGGSLRLSCAASGSTFGYNAMGWYRQAPGKERELVAAISSDGSTNYADSVKGRFTISRDNSKNTVYLQMNSLKPEDTAVYYCAADDNGAWVRMDYWGHGTQVTVSS,low polyreactivity
17,QVQLVESGGGLVQAGGSLRLSCAASGSTFVIYAMGWYRQAPGKERELVATITSGGSTYYADSVKGRFTISRDNAKNTVYLQMNSLKPEDTAVYYCAADDWGWPFYYYDDPMDYWGQGTQVTVSS,high polyreactivity
18,QVQLVESRGGLVQAGGSLRLSCAASGRIFGDNAMGWSRQAPGKEREFVATINGSGGSTYYADSVKGRFTISRDNAKNTVYLQMNSLKPEDTAVYYCFVYGYVPYNYWGQGTQVTVSS,low polyreactivity
19,QVQLVESGGGLVQAGGSLRLSCAASGFIFYKNAMGWYRQAPGKERELVAAITQRGGRTYYADSVKGRFTISRDNSKNTVYLQMNSLKPEDTAVYYCAAKALYGKQAWRYNYWGQGTQVTVSS,high polyreactivity
20,QVQLVESGGGLVQAGGSLRLSCAASGFILNAYTMGWYRQAPGKERELVATITINGGSTYYADSVKGRFTISRDNAKNTVYLQMNSLKPEDTPVYYCNADYWYKYDYWGQGTQVTVSS,low polyreactivity
21,QVQLVESGGGLVQAGGSLRLSCAASGSILFTNAMGWYRQAPGKERELVAAISSGGSTYYADSVKGRFTISRDNAKNTVYLQMNSLKPEDTAVYYCAASDHYRWYVHRWEDPFYYWGQGTQVTVSS,low polyreactivity
